# Assay results from article PMC2806925, “Crystal Structure of the S. solfataricus Archaeal Exosome Reveals Conformational Flexibility in the RNA-Binding Ring” (PLoS ONE, 2010).
# Molecular target: the molecule itself
# Experiment: crystal structure; Rrp4-exosome isoform (Rrp4, Rrp41, Rrp42 co-expressed and co-purified); 2.9 Å, space group C2; 30% PEG4000, 100 mM Tris-HCl pH 8.6, 200 mM Mg(Ac)2; refined without three-fold NCS
protein,measurement,value
"Sulfolobus solfataricus exosome subunit Rrp4 as in the crystallised Rrp4-exosome isoform (natural protein, domains as printed: N-ter aa 1-50, S1 aa 56-126, KH aa 135-250; The purification of the Rrp4-exosome isoform is not described on its own; In the four-subunit preparation the His6-tag was removed with TEV protease, so the tag was probably cleaved here too; also called Chains C, F and I) MNMSQSQKIVLQPRSIVVPGELLAEGEFQIPWSPYILKINSKYYSTVVGLFDVKDTQFEVIPLEGSFYYPKINDIVIGLVEDVEIYGWVVDIKAPYKAYLPASNLLGRSINVGEDLRRYLDVGDYVIARIENFDRSIDPVLSVKGKDLGRVSNGIVIDIMPVKVPRVIGKNKSMYETLTSKSGCSIFVANNGRIWATCPSRFSEEILIEAIRKIENESHIKGLTDRIKQFIEEKLGERNASSGETKTNS",stoichiometry N,3
